These results are taken from patent US5457182.

For assay [1], the target named is bovine brain calcineurin (bovine) (UniProt P48452).
For assay [2], the target named is N-succinyl-Ala-Leu-Pro-Phe-p-nitroanilide.

Turning to “FKBP12.6 (bovine, purified from calf brain cytosol)”, in assay [1], the IC50 for inhibition of CaN phosphatase activity (with FK-506, CaM, Ca2+, Mg2+) was determined as 16 nM.

Turning to cyclophilin (enzyme), the PPIase activity in assay [2] came to 25 fold. For the substance “recombinant human FKBP12 (from UniProt P62942)”, the IC50 for inhibition of CaN phosphatase activity (with FK-506, CaM, Ca2+, Mg2+) in assay [1] is 9.9 nM.
